# Data published in article PMC9770967, “Native holdup (nHU) to measure binding affinities from cell extracts” (Science Advances, 2022).
# B1: BYSL (protein, UniProt Q13895 1-437, looked up)
# Bystin: MPKFKAARGVGGQEKHAPLADQILAGNAVRAGVREKRRGRGTGEAEEEYVGPRLSRRILQQARQQQEELEAEHGTGDKPAAPRERTTRLGPRMPQDGSDDEDEEWPTLEKAATMTAAGHHAEVVVDPEDERAIEMFMNKNPPARRTLADIIMEKLTEKQTEVETVMSEVSGFPMPQLDPRVLEVYRGVREVLSKYRSGKLPKAFKIIPALSNWEQILYVTEPEAWTAAAMYQATRIFASNLKERMAQRFYNLVLLPRVRDDVAEYKRLNFHLYMALKKALFKPGAWFKGILIPLCESGTCTLREAIIVGSIITKCSIPVLHSSAAMLKIAEMEYSGANSIFLRLLLDKKYALPYRVLDALVFHFLGFRTEKRELPVLWHQCLLTLVQRYKADLATDQKEALLELLRLQPHPQLSPEIRRELQSAVPRDVEDVPITVE
# B2: DARS1: Aspartate--tRNA ligase, cytoplasmic (protein, UniProt P14868 1-501, looked up)
# Aspartate--tRNA ligase, …: MPSASASRKSQEKPREIMDAAEDYAKERYGISSMIQSQEKPDRVLVRVRDLTIQKADEVVWVRARVHTSRAKGKQCFLVLRQQQFNVQALVAVGDHASKQMVKFAANINKESIVDVEGVVRKVNQKIGSCTQQDVELHVQKIYVISLAEPRLPLQLDDAVRPEAEGEEEGRATVNQDTRLDNRVIDLRTSTSQAVFRLQSGICHLFRETLINKGFVEIQTPKIISAASEGGANVFTVSYFKNNAYLAQSPQLYKQMCICADFEKVFSIGPVFRAEDSNTHRHLTEFVGLDIEMAFNYHYHEVMEEIADTMVQIFKGLQERFQTEIQTVNKQFPCEPFKFLEPTLRLEYCEALAMLREAGVEMGDEDDLSTPNEKLLGHLVKEKYDTDFYILDKYPLAVRPFYTMPDPRNPKQSNSYDMFMRGEEILSGAQRIHDPQLLTERALHHGIDLEKIKAYIDSFRFGAPPHAGGGIGLERVTMLFLGLHNVRQTSMFPRDPKRLTP
# B3: RAE1 (protein, UniProt P78406 1-368, looked up)
# mRNA export factor RAE1: MSLFGTTSGFGTSGTSMFGSATTDNHNPMKDIEVTSSPDDSIGCLSFSPPTLPGNFLIAGSWANDVRCWEVQDSGQTIPKAQQMHTGPVLDVCWSDDGSKVFTASCDKTAKMWDLSSNQAIQIAQHDAPVKTIHWIKAPNYSCVMTGSWDKTLKFWDTRSSNPMMVLQLPERCYCADVIYPMAVVATAERGLIVYQLENQPSEFRRIESPLKHQHRCVAIFKDKQNKPTGFALGSIEGRVAIHYINPPNPAKDNFTFKCHRSNGTNTSAPQDIYAVNGIAFHPVHGTLATVGSDGRFSFWDKDARTKLKTSEQLDQPISACCFNHNGNIFAYASSYDWSKGHEFYNPQKKNYIFLRNAAEELKPRNKK
# Columns and labels:
# SNX27_PDZ [1] = assay: AP-MS control pull-down on leftover resin, SNX27_PDZ bait, total Jurkat extracts; assay type: binding, human; settings: for FC_AP: SNX27 vs MBP
# Description: Leftover beads from nHU-MS experiments were washed three times immediately after the separation of the supernatant [10 resin volume in buffer containing 50 mM tris (pH 8.5), 150 mM NaCl, 1% Triton X-100, 10× cOmplete EDTA-free protease inhibitor cocktail, 2 mM EDTA, and 1 mM TCEP]. Then, the beads were washed two times [10 resin volume buffer containing 50 mM tris (pH 8.5), 150 mM NaCl, and 1 mM TCEP]. Last, captured protein was eluted from the resin in two steps, and the eluted fractions were pooled. For each elution, the beads were incubated for 30 min with three resin volume buffer containing 20 mM tris (pH 8.5), 100 mM NaCl, 500 μM TCEP, and 8 M urea. Between each step, the beads were separated by mild centrifugation, and the supernatant was removed by gentle pipetting.
# The nHU samples were precipitated with trichloroacetic acid (TCA) 20% overnight at 4°C and centrifuged at 14,000 rpm for 10 min at 4°C. The protein pellets were washed twice with 1 ml of cold acetone and air-dried. The protein extracts were solubilized in 8 M urea, reduced with 5 mM TCEP for 30 min, and alkylated with 10 mM iodoacetamide for 30 min in the dark. Double digestion was performed at 37°C with 500 ng of endoproteinase Lys-C (Wako, Richmond, USA) for 4 hours, followed by fourfold dilution and an overnight digestion with 500 ng of trypsin (Promega, Charbonnieres les Bains, France). Peptide mixtures were then desalted on a C18 spin-column and dried on a speed vacuum.
# Samples were analyzed using an Ultimate 3000 nano-RSLC coupled in line via a nano-electrospray ionization source, with an LTQ-Orbitrap ELITE mass spectrometer (Thermo Fisher Scientific, San Jose, CA) or with the Orbitrap Exploris 480 mass spectrometer (Thermo Fisher Scientific, Bremen, Germany) equipped with a high field asymmetric ion mobility spectrometry (FAIMS) module. Peptide mixtures were injected in 0.1% trifluoroacetic acid on a C18 Acclaim PepMap100 trap column [75 μm inner diameter (ID) × 2 cm, 3 μm, 100 Å, Thermo Fisher Scientific] for 3 min at 5 μl/min with 2% acetonitrile (ACN) and 0.1% formic acid (FA) in H2O and then separated on a C18 Acclaim PepMap100 nano-column (75 μm ID × 50 cm, 2.6 μm, 150 Å, Thermo Fisher Scientific) at 300 nl/min and 40°C with a 90-min linear gradient from 5 to 30% buffer B (A: 0.1% FA in H2O/B: 80% ACN, 0.1% FA in H2O) and regeneration at 5% B. Spray voltage was set to 2.1 kV and heated capillary temperature was set to 280°C.
# For the Orbitrap Elite, the mass spectrometer was operated in positive ionization mode in data-dependent mode with survey scans from mass/charge ratio (m/z) 350 to 1500 acquired in the Orbitrap at a resolution of 120,000 at m/z 400. The 20 most intense peaks from survey scans were selected for further fragmentation in the linear ion trap with an isolation window of 2.0 Da and were fragmented by collision-induced dissociation (CID) with a normalized collision energy of 35% (TOP 20 CID method). Unassigned and single-charged states were excluded from fragmentation. The ion target value for the survey scans (in the Orbitrap) and the MS2 mode (in the linear ion trap) were set to 1E6 and 5E3, respectively, and the maximum injection time was set to 100 ms for both scan modes. Dynamic exclusion was set to 20 s after one repeat count with mass width at ±10 parts per million (ppm).
# Proteins were identified by database search using SequestHT (Thermo Fisher Scientific) with Proteome Discoverer 2.4 software (PD2.4, Thermo Fisher Scientific) on the human FASTA database downloaded from UniProt (reviewed, release 2021_06_03, 20380 entries, https://uniprot.org/, complemented with sequences of likely contaminants, such as MBP, streptavidin, or trypsin). Precursor and fragment mass tolerances were set at 7 ppm and 0.6 Da, respectively, and up to two missed cleavages were allowed. […]
# SNX27_PDZ [2] = assay: nHU-MS, SNX27_PDZ bait, total Jurkat extracts, series 1; assay type: binding, human; settings: for pKapp_HU_not_filtered: SNX27 bait, not filtered for significance; for FC_HU: SNX27 vs MBP control
# Description: The empty His6-AviTag-MBP-TEV vector was used to produce biotinylated MBP for control experiments. Proteins were coexpressed with BirA biotin ligase (PET21a-BirA, Addgene, no. 20857) in Escherichia coli BL21(DE3) cells. At isopropyl-β-D-thiogalactopyranoside (IPTG) induction (1 mM IPTG at 18°C overnight), 50 μM biotin was added to the media. Harvested cells were lysed in a buffer containing 50 mM tris (pH 7.5), 150 to 300 mM NaCl, 50 μM biotin, 2 mM β-mercaptoethanol, cOmplete EDTA-free protease inhibitor cocktail (Roche, Basel, Switzerland), 1% Triton X-100, and trace amount of deoxyribonuclease, ribonuclease, and lysozyme. Lysates were frozen at −20°C before further purification steps. Lysates were sonicated and centrifuged for clarification. Expressed proteins were captured on in-house prepacked Ni-IDA (Protino Ni-IDA Resin, Macherey-Nagel, Duren, Germany) columns and were washed with at least 10 column volumes of cold wash buffer [50 mM tris (pH 7.5), 150 mM NaCl, and 2 mM β-mercaptoethanol] before elution with 250 mM imidazole. The Ni elution was collected directly on a preequilibrated amylose column (amylose high flow resin, New England Biolabs, Ipswich, MA). Amylose column was washed with 5 column volumes of cold wash buffer before fractionated elution in a buffer containing 25 mM Hepes (pH 7.5), 150 mM NaCl, 1 mM TCEP, 10% glycerol, 5 mM maltose, and cOmplete EDTA-free protease inhibitor cocktail. The concentration of proteins was determined by their ultraviolet absorption at 280 nm before aliquots were snap-frozen in liquid nitrogen and stored at −80°C.
# For saturating streptavidin resin with biotinylated peptides or biotin, 50 μl of streptavidin resin was mixed with biotin or peptide at 40 to 60 μM concentration in 6 to 6.5 resin volume for 60 min. To saturate streptavidin resin with biotinylated proteins, 50 μl of streptavidin resin (Streptavidin Sepharose High Performance, Cytiva) was mixed with biotinylated MBP or MBP-PDZ at 40 to 50 μM concentration in 20× resin volume for 60 min. After saturation, resins were washed a single time [10 resin volume, holdup buffer: 50 mM tris (pH 7.5), 300 mM NaCl, and 1 mM TCEP, 0.22-μm filtered] and were depleted with biotin (10 resin volume, 10 min, holdup buffer supplemented with 100 μM biotin). Last, resins were washed two times (10 resin volume, holdup buffer).
# For single-point nHU experiments carried out at ~10 μM bait concentration, 50 μl of saturated streptavidin resin was mixed with 200 μl of cell lysate (2 mg/ml). Titration experiments were carried out by mixing control and bait-saturated resin and keeping the total resin volume constant; e.g., ~5 μM bait concentration can be achieved by mixing 25 μl of bait-saturated streptavidin resin with 25 μl of control resin and 200 μl of cell lysate (2 mg/ml). Control and bait-saturated resins were prepared in larger amounts, and a serial dilution was prepared with these presaturated resins to achieve different resin ratios.
# Unless specified elswhere, the nHU mixture was incubated at 4°C for 2 hours. After the incubation ended, the resin was separated from the supernatant by a brief centrifugation (15 s, 2000 g). Then, half of the supernatant was removed by pipetting without any delay to avoid any resin contamination; e.g., 100 μl of supernatant is collected if 200 μl of cell lysate was used as analyte. Alternatively, the supernatant can be centrifuged an additional time to clarify it further, removing any possible resin contamination. In principle, the separation of the supernatant should be as fast as possible since any delay can perturb the equilibrium. […] Alternatively, the resin can be separated from the supernatant using filter plates (e.g., various products of Millipore, Burlington, MA) or spin columns (e.g., Pierce spin cups—cellulose acetate filter from Thermo Fisher Scientific, Waltham, MA) to achieve faster separation. […]
# [3] = AP-MS control pull-down, SNX27/MBP, total Jurkat extract
# [4] = AP-MS control pull-down, total Jurkat extract
# [5] = nHU-MS, SNX27/MBP, total Jurkat extract, sheet "SNX27&Jurkat"
# [6] = nHU-MS, SNX27 bait vs MBP control, total Jurkat extract, sheet "SNX27&Jurkat"
# [7] = nHU-MS, total Jurkat extract, sheet "SNX27&Jurkat"
# [8] = Jurkat, series 1, leftover resin, n = 6
"pKapp_HU_not_filtered (SNX27_PDZ [2]; nHU-MS, total Jurkat extract)","pKapp_significant_binders_HU (SNX27_PDZ [2]; apparent, Eq. 2, Jurkat, series 1, significant binders (1 σ, P < 0.05))",Molecule,Ratio_AP (SNX27_PDZ [1]; [3]),FC_AP (SNX27_PDZ [1]; [4]),"BINDER_AP (SNX27_PDZ [1]; AP-MS control pull-down, total Jurkat extract, BINDS / DOES NOT BIND)",Ratio_HU (SNX27_PDZ [2]; [5]),BI_HU (SNX27_PDZ [2]; [6]),FC_HU (SNX27_PDZ [2]; [7]),FC_AP (log2 fold change) (SNX27_PDZ [1]; [8]),Ratio_AP (SNX27_PDZ [1]; [8]),"BI_HU (SNX27_PDZ [2]; Jurkat, series 1, n = 6)","FC_HU (log2 fold change) (SNX27_PDZ [2]; Jurkat, series 1, n = 6)","Ratio_HU (SNX27_PDZ [2]; Jurkat, series 1, n = 6)"
4.747,,B1,9.097,3.185,DOES NOT BIND,0.6423,0.3577,-0.6386,,,,,
,4.739,B2,,,,,,,3.29,9.779,0.3534,-0.629,0.6466
4.751,,B3,3.111,1.637,,0.6404,0.3596,-0.643,,,,,
